Data published in paper PMC6743362.

Biological target: microtubules (MT fraction from mouse brain) (mouse (endogenous in mouse brain)) (UniProt P68369)
Test: co-sedimentation

In the case of “recombinant human tau lacking the MT-binding domain (tau ΔMTBD) (from UniProt P10636-6 1-383) (natural protein)”, the MT-bound fraction is reported as 0.619 and the MT-unbound fraction is reported as 0.381.
